Measurements from patent US20060099689.

Experiments:
TRX-EK-mIL15 = biological target: T1, TRX-EK-mIL15 (UniProt P48346)
T1 sequence: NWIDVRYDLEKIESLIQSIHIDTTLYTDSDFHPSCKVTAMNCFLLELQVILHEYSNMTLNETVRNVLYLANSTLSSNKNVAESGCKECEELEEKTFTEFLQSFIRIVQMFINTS

[1] = tested on: TRX-EK-hIFNa [thioredoxin: P0AA25]
H-GST-T-mLIF = H-GST-T-mLIF (UniProt P09056)
H-GST-DEVD/S-mLIF = H-GST-DEVD/S-mLIF (UniProt P09056)
H-GST-DEVD/mLIF = H-GST-DEVD/mLIF (UniProt P09056)

TRX-EK-hIFNa [thioredoxin: P0AA25], sequence (P0AA25 whole entry, looked up): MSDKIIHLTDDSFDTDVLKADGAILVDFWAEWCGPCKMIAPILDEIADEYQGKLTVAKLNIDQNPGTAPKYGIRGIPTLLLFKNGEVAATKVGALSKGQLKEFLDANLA

For Enterokinase, the “cleavage of the fusion protein (gel, FIG. 3a)” value (TRX-EK-mIL15) was “Cleavage with enterokinase required a long incubation time in order to process the molecule. In the end, the molecule was processed” and the “processing of the fusion protein (gel, FIG. 3b)” value [1] was 16 h incubation with Enterokinase resulted in only a minor amount of processing of the fusion protein.

In the case of Thrombin, the “time needed for processing” value (H-GST-T-mLIF) is reported as “up to 16 h were needed to process the H-GST-T-mLIF fusion protein with Thrombin”.

For reverse Caspase-7, the “cleavage of the fusion protein (gel, FIG. 7)” value (shortened to “cleavage … (gel, FIG. 7)”) (H-GST-DEVD/S-mLIF) was “Both mLIF and hIFN alpha were cut efficiently using Either Caspase-3 or reverse Caspase-7, with either the recognition site DEVD/ or DEVD/S”, the “cleavage … (gel, FIG. 7)” value (GST-C-hIFNα) was “Both mLIF and hIFN alpha were cut efficiently using Either Caspase-3 or reverse Caspase-7, with either the recognition site DEVD/ or DEVD/S” and the “cleavage … (gel, FIG. 7)” value (H-GST-DEVD/mLIF) was “Both mLIF and hIFN alpha were cut efficiently using Either Caspase-3 or reverse Caspase-7, with either the recognition site DEVD/ or DEVD/S”.
